Legend:
[1] = tested on: Type I-F Cascade (Cas8f, Cas5f, His-Cas7f, Cas6f, crRNA) (Shewanella baltica OS195); test: BLI
[2] = tested on: Type I-Fv Cascade (Cas5fv, His-Cas7fv, Cas6f, crRNA spacer4) (Shewanella putrefaciens CN-32); test: BLI; settings: BLI buffer: SEC buffer (composition in Supplementary Table II, not in material) + 0.1 uM BSA + 0.01% Triton X-100, 100 nM biotinylated oligonucleotide loaded …

## CGCCGGTTATAGGTTTGCGCGTCTTGCTGGGCGATAGGACGTGGGATATCTTTTTGATATCCCACGTCCTATCGCCCAGCAAGACGCGCAAACCTATAACCGGCG (double strand) [Complementary (GG PAM)]
[1]; BLI buffer: SEC buffer (composition in Supplementary Table II, not in material) + 0.1 uM BSA + 0.01% Triton X-100, 100 nM biotinylated oligonucleotide loaded …
  Kd: 99.6 nM
[1]; BLI buffer: SEC buffer (composition in Supplementary Table II, not in material) + 0.1 uM BSA + 0.01% Triton X-100, 100 nM biotinylated oligonucleotide loaded …, scale: fold reduction of equilibrium binding level
  binding signal: 5
[2]
  Kd: 46.5 nM

— paper PMC7266957
